Positions count from the first letter of the chain named.
Tests used:
GLP-1 (BM) = biological target: T1, GLP-1 (BM)
T1 chain: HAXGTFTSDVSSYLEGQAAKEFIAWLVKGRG

[1] = biological target: T2, TLE-modified GLP-1 (7-37) analog
T2 chain: T1 chain

GLP-1 (7-37) = biological target: T3, GLP-1 (7-37)
T3 chain: T1 chain with X3E

GLP-1 (3DMA) = biological target: T4, GLP-1 (3DMA)
T4 chain: T1 chain

B1: human DPP IV (protein)
chain: SRKTYTLTDYLKNTYRLKLYSLRWISDHEYLYKQENNILVFNAEYGNSSVFLENSTFDEFGHSINDYSISPDGQFILLEYNYVKQWRHSYTASYDIYDLNKRQLITEERIPNNTQWVTWSPVGHKLAYVWNNDIYVKIEPNLPSYRITWTGKEDIIYNGITDWVYEEEVFSAYSALWWSPNGTFLAYAQFNDTEVPLIEYSFYSDESLQYPKTVRVPYPKAGAVNPTVKFFVVNTDSLSSVTNATSIQITAPASMLIGDHYLCDVTWATQERISLQWLRRIQNYSVMDICDYDESSGRWNCLVARQHIEMSTTGWVGRFRPSEPHFTLDGNSFYKIISNEEGYRHICYFQIDKKDCTFITKGTWEVIGIEALTSDYLYYISNEYKGMPGGRNLYKIQLSDYTKVTCLSCELNPERCQYYSVSFSKEAKYYQLRCSGPGLPLYTLHSSVNDKGLRVLEDNSALDKMLQNVQMPSKKLDFIILNETKFWYQMILPPHFDKSKKYPLLLDVYAGPCSQKADTVFRLNWATYLASTENIIVASFDGRGSGYQGDKIMHAINRRLGTFEVEDQIEAARQFSKMGFVDNKRIAIWGWSYGGYVTSMVLGSGSGVFKCGIAVAPVSRWEYYDSVYTERYMGLPTPEDNLDHYRNSTVMSRAENFKQVEYLLIHGTADDNVHFQQSAQISKALVDVGVDFQAMWYTDEDHGIASSTAHQHIYTHMSHFIKQCFSLP
cleavage of the peptide by the enzyme, HPLC/MS (GLP-1 (BM)): both GLP-1 (3DMA) and GLP-1 (BM) were resistant to cleavage by DPP IV in comparison to native GLP-1 | cleavage of the peptide by the enzyme, HPLC/MS after two hours [1]: TLE-modified GLP-1 is resistant to degradation by DPP IV | cleavage of the peptide by the enzyme, HPLC/MS after two hours (GLP-1 (7-37)): treatment with DPP IV resulted in a time dependent degradation of GLP-1 | cleavage of the peptide by the enzyme, HPLC/MS (GLP-1 (3DMA)): both GLP-1 (3DMA) and GLP-1 (BM) were resistant to cleavage by DPP IV in comparison to native GLP-1
